# Experimental data from patent publication US20130149312A1, “COMPOSITIONS AND METHODS FOR TREATING COPD EXACERBATION” (MCMASTER UNIVERSITY, priority 2010, published 2013).
# Key:
# [1] = biological target: T1, IL-1R (Homo sapiens, UniProt P14778); experiment: Smoke plus HRV virus induced IL-8 release in BEAS-2B cells; assay type: cell-based; settings: 20% smoked medium then HRV, different anakinra concentrations
# T1 sequence (P14778 18-569): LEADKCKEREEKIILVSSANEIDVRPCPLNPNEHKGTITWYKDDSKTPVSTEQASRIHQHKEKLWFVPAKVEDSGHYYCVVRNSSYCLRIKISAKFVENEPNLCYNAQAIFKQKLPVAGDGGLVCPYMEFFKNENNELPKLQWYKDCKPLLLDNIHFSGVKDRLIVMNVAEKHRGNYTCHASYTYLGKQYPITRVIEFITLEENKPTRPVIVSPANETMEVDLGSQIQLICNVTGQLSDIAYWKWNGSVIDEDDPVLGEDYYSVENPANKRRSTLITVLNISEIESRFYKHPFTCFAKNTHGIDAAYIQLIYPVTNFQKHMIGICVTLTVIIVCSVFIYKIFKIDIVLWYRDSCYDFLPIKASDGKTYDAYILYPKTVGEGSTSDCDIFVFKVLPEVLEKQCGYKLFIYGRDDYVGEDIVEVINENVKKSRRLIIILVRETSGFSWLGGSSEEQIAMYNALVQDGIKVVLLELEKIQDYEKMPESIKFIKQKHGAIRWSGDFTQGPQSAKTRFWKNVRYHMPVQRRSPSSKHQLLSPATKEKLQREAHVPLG
# Method: (§1) The inflammatory response of epithelial cell in vitro was measured in response to smoke conditioned medium, or smoke conditioned medium and virus. The smoke conditioned medium was generated by bubbling cigarette smoke through tissue culture (TC) medium, and is referred to later in this example as ‘smoke’ or ‘smoke treatment’ of the cells. One cigarette with the filter removed bubbled through 25 mL medium is equal to 100% smoked medium. Cigarette smoke treated medium was titrated for IL-8 release and cell confluence on BEAS-2b cells. 20% smoked medium was used for all experiments as it induced pro-inflammatory cytokine release without significant cell death.
# (§2) To examine the role of IL-1R in smoke and virus induced inflammation, cells were first smoke treated with a pre-treatment of IL-1R antagonist, and then as required, infected with HRV virus with another pre-treatment of IL-1R antagonist, anakinra. (FIGS. 10A and 10C).
# (§3) A lit cigarette (no filter) was connected by tubing to a falcon tube (50 ml capacity) containing tissue culture medium which was supported in a glass flask. A peristaltic pump drew the smoke through the tubing and into the tissue culture medium. The waste smoke was drawn into a beaker of detergent. The whole procedure was performed within a fume cupboard to protect the operator and other users of the lab. The procedure was therefore not sterile. […]
# [2] = biological target: T2, IL-1R1 (Homo sapiens, UniProt P14778); experiment: HRV14-induced IL-8 release in BEAS-2b/H292 epithelial cells; settings: BEAS-2b/H292 cells; PEG purified HRV14; anakinra 25 nM (FIG. 8B)
# T2 sequence (P14778 18-569): T1 sequence (P14778 18-569)
# Method: To investigate the role of IL-1 in human rhinovirus (HRV)-mediated inflammatory response, PEG purified HRV14 was used to infect BEAS-2b/H292 cells (human cells available from the ATCC) while those cells were being exposed to an IL-1R antagonist (FIG. 8A). […] A prototypic inflammatory mediator IL-8 (CXCL-1) was examined after treatment and HRV14 infection of the cells (FIG. 8). […] The concentration of anakinra used on the cells was 25 nM.
# Cells used for epithelial smoke and virus work were BEAS-2B cells obtained from ATCC (catalogue number CRL-9609) and grown as per suppliers instructions, or H292s from ECACC (catalogue no 91091815 NCI-H292) also grown according to suppliers instructions. […]
# Cells were seeded onto collagen coated flat clear bottomed plates and were incubated at 37° C. […] Anakinra or media was replaced onto cells in 100 ul and the virus was added 30 minutes later at a dilution determined by titres of virus stock on HeLa OHIO cells to determine equivalent activity for each batch made in an additional 100 ul . […]
# IL-8 was measured in supernatants using ELISA kit (R&D Systems Duoset DY208) according to manufacturer's instructions and using R&D recombinant protein as standards for the assays.
# [3] = biological target: T1, IL-1R; experiment: Smoke conditioned medium induced IL-8 release in BEAS-2B cells; assay type: cell-based; settings: 20% smoked medium, 24 hours
# Method: as §1, §2, §3
# [4] = biological target: T3, IL-1R1 (Mus musculus, UniProt P13504); experiment: IL-1beta-induced neutrophil mediated inflammation in the mouse lung (BAL); assay type: in vivo; settings: Balb/c mice; anakinra subcutaneously 1 hour before IL-1beta 5 ng/50 μl intratracheally; BAL after 4 hours; vs control IL-1 treated animals
# T3 construct: from tissue; host or cells: living Balb/c mice (lung / systemic), read-out BAL cell counts
# T3 sequence (P13504 20-576): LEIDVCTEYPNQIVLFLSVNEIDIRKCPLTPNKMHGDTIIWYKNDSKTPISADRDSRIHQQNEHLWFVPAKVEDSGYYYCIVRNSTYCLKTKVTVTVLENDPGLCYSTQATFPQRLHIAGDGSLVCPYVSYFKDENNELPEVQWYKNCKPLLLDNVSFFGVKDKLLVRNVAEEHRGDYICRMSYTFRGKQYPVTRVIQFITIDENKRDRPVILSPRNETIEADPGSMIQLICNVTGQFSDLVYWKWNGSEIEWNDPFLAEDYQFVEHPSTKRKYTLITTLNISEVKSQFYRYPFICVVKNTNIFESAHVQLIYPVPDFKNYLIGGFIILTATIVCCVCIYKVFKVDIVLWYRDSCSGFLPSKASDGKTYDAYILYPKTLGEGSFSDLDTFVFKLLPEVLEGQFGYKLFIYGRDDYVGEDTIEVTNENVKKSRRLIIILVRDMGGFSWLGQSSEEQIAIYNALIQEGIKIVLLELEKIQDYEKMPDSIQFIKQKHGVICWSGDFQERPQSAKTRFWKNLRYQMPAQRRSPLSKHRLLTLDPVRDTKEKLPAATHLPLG
# Method: As noted above, the effect of IL-1R1 antagonist treatment on an IL-1beta-induced neutrophil mediated inflammation in the mouse lung was also examined (FIG. 1B). Anakinra (KINERET™) was dosed subcutaneously one hour before a treatment of IL-1beta of 5 ng/50 μl. After four hours, cell counts were obtained by BAL. Anakinra reduced the cell count by 71% compared to control IL-1 treated animals.
# Mice were adult Balb/c females. Anakinra was dosed subcutaneously one hour before IL-1beta was administered intratracheally to the mouse lung using a dose of 5 ng in 50 ul. After 4 hours, the lungs of the mouse were lavaged, essentially as for the acute smoke model (example 2), and total cells and differential cell counts performed.
# [5] = biological target: T3, IL-1R1; experiment: Inhaled LPS model of acute lung inflammation (BAL cells); assay type: in vivo; settings: Balb/c mice; anakinra by ALZET osmotic pump from 48 hours before inhaled LPS; BAL 48 hours after challenge; vs control LPS treated mice; P<0.001
# Excerpt: Lipopolysaccharide (LPS) is a component of bacterial cell walls of gram negative bacteria. […] The effect of an IL-1R1 antagonist, anakinra, was examined in a mouse model of LPS mediated inflammatory cell influx into the lung. Anakinra inhibited LPS mediated inflammatory cell influx as measured by BAL total cells into the lung by 47% compared to control LPS treated mice (P<0.001) (FIG. 7).
# Anakinra was delivered using an ALZET osmotic pump as described for acute smoke model, and was also administered to the mice 48 hours before the LPS administration. Mice were adult female Balb/c mice.
# The mice were placed in a semi-open exposure inhalation box (max 10 mice) and were exposed once to aerosolised LPS—total inhalation session time 12 minutes. P. aeriginosa LPS was used at a concentration of 5 mg/ml and was aerosolised using a nebuliser (such as a PariStar Jet Star nebuliser), filled with 5 ml volume and flow from the nebuliser was 5 l/min (Pressure=2 bar). The control groups received the same procedure but with PBS. […] The BAL was then centrifuged—the cell pellet was analysed using standard automated cell counting and differential cell counting. […] The significance of differences between groups was calculated using Student's T test with one-tailed distribution and two-sample unequal variance. […]
# [6] = biological target: T3, IL-1R1; experiment: Acute tobacco smoke model of lung inflammation (BAL cells); assay type: in vivo; settings: Balb/c mice; smoke twice daily; BAL day 5; 35F5/MAB005 15 mg/kg i.p. once daily; anakinra 48 mg/kg/day s.c. by ALZET pump
# Excerpt: The antibody 35F5 is a monoclonal antibody which binds to mouse IL-1R1 and prevents the binding of both IL-1beta and IL-1alpha to the receptor IL-1R1Anakinra antagonises the effects of both IL-1beta and IL-1alpha. […] The data shown in this example confirms that inhibition of IL-1R1 by 35F5 decreases inflammation in an acute model of murine lung inflammation, induced by a stimulus relevant to COPD such as smoke. This is consistent with previous observations in the public domain, and with other studies using IL-1Ra (anakinra; IL-1 receptor antagonist). In this mouse model, cigarette smoke causes significant increases in neutrophil BAL cell numbers after 4 days of smoke inhalation. To investigate the effects of IL-1R1 pathway inhibition on the acute inflammatory response to cigarette smoke inhalation, Balb/c mice were exposed to cigarette smoke twice daily (for 50 minutes) […] and dosed intraperitoneally once daily with either 35F5, isotype control rat IgG1 (MAB005), or saline, starting 48 hours before the first smoke exposure and continuing for 4 days. On Day 5, animals were terminated and BAL was performed. An additional treatment arm was included in which animals were exposed to cigarette smoke as above but dosed sub-cutaneously (SC) continuously with anakinra using infusion pumps (ALZET) starting dosing 48 hours prior to the first smoke exposure. […]
substance,measurement,setting,value
anakinra,combined smoke and virus IL-8 response,[1],Concentration dependent and complete inhibition
same,IL-8 levels after HRV14 infection,[2],reduced
same,smoke-induced IL-8 response,[3],dose dependent effect
same,smoke-induced IL-8 response,[3]; listed as Anakinra,partial inhibition
same,inhibition of IL-1beta-induced increase of neutrophils / cell count in BAL,[4],71%
same,inhibition of LPS mediated inflammatory cell influx (BAL total cells),[5],47%
same,tobacco smoke-induced acute inflammatory cell infiltration in BAL,[6],significantly inhibited
